Laboratory results: the Immune Epitope Database (IEDB)

Experiments:
[1] = target: HLA-A*02:01; experiment: IEDB peptide-MHC binding, purified MHC/competitive/fluorescence; filed as Kd, often an IC50 or EC50 that approximates it; ≥ and ≤ were set here for values at or beyond the usual limits of such assays
[2] = target: HLA-A*02:03; experiment: as above
[3] = target: HLA-A*02:11; experiment: as above
[4] = target: HLA-A*02:12; experiment: as above
[5] = target: HLA-A*02:16; experiment: as above
[6] = target: HLA-A*02:19; experiment: as above
[7] = target: HLA-A*03:01; experiment: as above; settings: source organism: Entamoeba dispar SAW760
[8] = target: HLA-A*24:03; experiment: as above
[9] = target: HLA-A*26:01; experiment: as above
[10] = target: HLA-A*29:02; experiment: as above; settings: source organism: Entamoeba dispar SAW760
[11] = target: HLA-A*68:02; experiment: as above
[12] = target: HLA-A*69:01; experiment: as above
[13] = target: HLA-B*15:01; experiment: as above
[14] = target: HLA-B*15:17; experiment: as above; settings: source organism: Entamoeba dispar SAW760
[15] = target: HLA-B*18:01; experiment: as above
[16] = target: HLA-B*27:03; experiment: as above
[17] = target: HLA-B*39:01; experiment: as above
[18] = target: HLA-B*46:01; experiment: as above
[19] = target: HLA-B*51:01; experiment: as above
[20] = target: HLA-B*57:01; experiment: as above
[21] = target: HLA-A*02:01; experiment: IEDB peptide-MHC binding, purified MHC/direct/fluorescence; filed as Kd, often an IC50 or EC50 that approximates it; ≥ and ≤ were set here for values at or beyond the usual limits of such assays; settings: source organism: Yersinia pestis
[22] = target: HLA-A*03:01; experiment: as above; settings: source organism: Yersinia pestis
[23] = target: HLA-A*26:01; experiment: as above; settings: source organism: Yersinia enterocolitica subsp. enterocolitica 8081
[24] = target: HLA-B*07:02; experiment: as above; settings: source organism: Yersinia pestis
[25] = target: HLA-B*08:02; experiment: as above; settings: source organism: Yersinia enterocolitica subsp. enterocolitica 8081
[26] = target: HLA-B*08:03; experiment: as above; settings: source organism: Yersinia enterocolitica subsp. enterocolitica 8081
[27] = target: HLA-B*15:01; experiment: as above; settings: source organism: Yersinia pestis
[28] = target: HLA-B*18:01; experiment: as above; settings: source organism: Yersinia pestis
[29] = target: HLA-B*27:05; experiment: as above; settings: source organism: Yersinia pestis
[30] = target: HLA-B*39:01; experiment: as above; settings: source organism: Yersinia enterocolitica subsp. enterocolitica 8081
[31] = target: HLA-B*40:01; experiment: as above; settings: source organism: Yersinia pestis
[32] = target: HLA-B*46:01; experiment: as above; settings: source organism: Yersinia pestis
[33] = target: HLA-B*48:01; experiment: as above; settings: source organism: Yersinia pestis
[34] = target: HLA-B*57:01; experiment: as above; settings: source organism: Yersinia pestis
[35] = target: HLA-B*58:01; experiment: as above; settings: source organism: Yersinia pestis
[36] = target: HLA-A*01:01; experiment: IEDB peptide-MHC binding, purified MHC/competitive/fluorescence; filed as Kd, often an IC50 or EC50 that approximates it; ≥ and ≤ were set here for values at or beyond the usual limits of such assays; settings: source organism: Yersinia pestis Nepal516
[37] = target: HLA-A*02:06; experiment: as above; settings: source organism: Yersinia pestis Nepal516
[38] = target: HLA-A*26:02; experiment: as above; settings: source organism: Yersinia pestis Nepal516
[39] = target: HLA-A*26:03; experiment: as above; settings: source organism: Yersinia pestis Nepal516
[40] = target: HLA-A*31:01; experiment: as above; settings: source organism: Coxiella burnetii RSA 331
[41] = target: HLA-B*08:01; experiment: as above; settings: source organism: Shigella boydii Sb227
[42] = source organism: Entamoeba dispar SAW760
[43] = source organism: Coxiella burnetii RSA 331
[44] = source organism: Deerpox virus W-848-83

FELLHFISS showed a Kd [1, 42] of at least 20 µM, a Kd [2, 42] of at least 20 µM and a Kd [3, 42] of at least 20 µM. The Kd [4, 42] was at least 20 µM, the Kd [5, 42] was at least 20 µM and the Kd [6, 42] was at least 20 µM. For the same sequence, the Kd [7] was at least 20 µM, the Kd [8, 42] was at least 20 µM and the Kd [9, 42] was at least 20 µM. It also gave a Kd [10] of at least 20 µM, a Kd [11, 42] of at least 20 µM and a Kd [12, 42] of at least 20 µM. It also gave a Kd [13, 42] of at least 20 µM, a Kd [14] of at least 20 µM and a Kd [15, 42] of 0.564 µM. For the same sequence, the Kd [16, 42] was at least 20 µM, the Kd [17, 42] was at least 20 µM and the Kd [18, 42] was at least 20 µM. For the same sequence, the Kd [19, 42] was at least 20 µM and the Kd [20, 42] was at least 20 µM.

Sequence QWSPGPGRL has a Kd [21] of at least 20 µM, a Kd [22] of 0.719 µM and a Kd [23] of at least 20 µM. For the same sequence, the Kd [24] was at least 20 µM, the Kd [25] was at least 20 µM and the Kd [26] was at least 20 µM. For the same sequence, the Kd [27] was at least 20 µM, the Kd [28] was at least 20 µM and the Kd [29] was at least 20 µM. The Kd [30] was at least 20 µM, the Kd [31] was at least 20 µM and the Kd [32] was at least 20 µM. The Kd [33] was at least 20 µM, the Kd [34] was at least 20 µM and the Kd [35] was at least 20 µM. For the same sequence, the Kd [36] was at least 20 µM, the Kd ([2]; source organism: Yersinia pestis Nepal516) was 4.85 µM and the Kd [37] was 0.157 µM. It also gave a Kd [38] of at least 20 µM and a Kd [39] of at least 20 µM.

In the case of HMNKLPLAK, the Kd [1, 43] is reported as at least 20 µM, the Kd [2, 43] is reported as at least 20 µM and the Kd [3, 43] is reported as at least 20 µM. For the same sequence, the Kd [4, 43] was at least 20 µM, the Kd [5, 43] was at least 20 µM and the Kd [6, 43] was at least 20 µM. The Kd [8, 43] was at least 20 µM, the Kd [9, 43] was at least 20 µM and the Kd [40] was 0.223 µM. For the same sequence, the Kd [11, 43] was at least 20 µM, the Kd [12, 43] was at least 20 µM and the Kd [13, 43] was at least 20 µM. For the same sequence, the Kd [15, 43] was at least 20 µM, the Kd [16, 43] was at least 20 µM and the Kd [17, 43] was at least 20 µM. For the same sequence, the Kd [18, 43] was at least 20 µM, the Kd [19, 43] was at least 20 µM and the Kd [20, 43] was at least 20 µM.

FLSHKIHVI showed a Kd ([1]; source organism: Shigella boydii Sb227) of 0.0016 µM and a Kd [41] of 0.0861 µM.

Sequence YVAGITLTH has a Kd [1, 44] of at least 20 µM, a Kd [2, 44] of at least 20 µM and a Kd [3, 44] of at least 20 µM. The Kd [4, 44] was at least 20 µM, the Kd [5, 44] was at least 20 µM and the Kd [6, 44] was at least 20 µM. The Kd [12, 44] was at least 20 µM, the Kd [15, 44] was at least 20 µM and the Kd [16, 44] was at least 20 µM. For the same sequence, the Kd [17, 44] was at least 20 µM, the Kd [19, 44] was at least 20 µM and the Kd [20, 44] was at least 20 µM.
